The results in this text go back to patent publication US11884710B2, “Peptide compounds and methods of use in wound healing” (priority 2013, dated 2024).

The experiment relates to PKCδ. The experiment in a line: PKCδ siRNA knockdown and CAP37-induced corneal wound healing in vivo. The arrangement: species or system mouse. As to conditions: CAP37 250 ng/ml. How it is done:
(A) siRNA directed against PKCδ or scrambled siRNA was injected into the mouse conjunctiva. The mouse corneal epithelium was removed with the AlgerBrush II. Corneal abrasions were treated at 0 and 16 hours with rCAP37 (250 ng/ml), or were left untreated (saline vehicle control). Wound healing was monitored at 0, 16, and 24 hours using fluorescein staining. Data are represented as the percentage of wound closure and are expressed as mean±SEM. The data are representative of at least 9 mice per group. *P<0.05 by unpaired t-test as compared to vehicle (normal saline) treated controls. The efficiency of the PKCδ knockdown in each cornea was confirmed by Western blot analysis 24 hours post-injection and determined in comparison to the scrambled siRNA-injected corneas. Data are representative of 22 experimental samples and are expressed as mean±SEM (***P<0.0005 by unpaired t-test). […]
siRNA transfection and gene silencing: Stealth RNAi™ (10 μM, Ambion®, Grand Island, N.Y.) directed against PKCδ or Stealth RNAi™ siRNA Negative Control Hi GC (10 μM, Ambion®) was delivered into the mouse conjunctiva through a 5 μl subconjunctival injection using a 33-gauge needle (Hamilton®, Reno, Nev.). […] Wound closure was quantitated at 16 and 24 hours as described. […]
Protein (20 μg) from each sample of corneal homogenate was analyzed by electrophoresis on a 10% SDS-PAGE gel. […]

B1: CAP37: cationic antimicrobial protein of Mr 37 kDa; recombinant CAP37 produced in human embryonic kidney (HEK) 293 cells (protein)
chain: IVGGRKARPRQFPFLASIQNQGRHFCGGALIHARFVMTAASCFQSQNPGVSTVVLGAYDLRRRERQSRQTFSISSMSENGYDPQQNLNDLMLLQLDREANLTSSVTILPLPLQNATVEAGTRCQVAGWGSQRSGGRLSRFPRFVNVTVTPEDQCRPNNVCTGVLTRRGGICNGDGGTPLVCEGLAHGVASFSLGPCGRGPDFFTRVALFRDWIDGVLNNPGP
For B1, the “wound healing in response to CAP37, in words” value (corneas transfected with PKCδ siRNA, 16 or 24 hours) was “no significant increase in wound healing”. Further, the “wound closure after CAP37, in words” value (corneas transfected with scrambled siRNA, 24 hours) is listed as “expected increase in wound closure”.
